Measurements from patent publication US20070224188A1.

Molecular target: biotin-labeled soluble FcRn
Assay: FcRn ELISA pH 6.0

FcRn pH6.0 (% of wild type)	FcRn6.0 (% of wild type)	Substance
1010	–	anti-CD20 IgG1 N434F (antibody)
–	61	anti-CD20 IgG1 247L251F376I (antibody)
144	–	anti-CD20 IgG1 D376I (antibody)
88	–	anti-CD20 IgG1 N315K (antibody)
114	–	anti-CD20 IgG1 I332R (antibody)
80	–	anti-CD20 IgG1 A339D (antibody)
–	68	anti-CD20 IgG1 251F332E376I (antibody)
7	–	anti-CD20 IgG1 S254D (antibody)
160	–	anti-CD20 IgG1 D376T (antibody)
1020	–	anti-CD20 IgG1 P257I (antibody)
138	–	anti-CD20 IgG1 A339T (antibody)
131	–	anti-CD20 IgG1 Q311T (antibody)
74	–	anti-CD20 IgG1 S254L (antibody)
34	–	anti-CD20 IgG1 K248P (antibody)
–	212	anti-CD20 IgG1 376V430Q (antibody)
100	–	anti-CD20 IgG1 I332T (antibody)
319	–	anti-CD20 IgG1 P257A (antibody)
82	–	anti-CD20 IgG1 S440N (antibody)
–	531	anti-CD20 IgG1 283R311I (antibody)
27	–	anti-CD20 IgG1 R255N (antibody)
72	–	anti-CD20 IgG1 S440D (antibody)
76	–	anti-CD20 IgG1 P238E (antibody)
75	–	anti-CD20 IgG1 P247T (antibody)
263	–	anti-CD20 IgG1 I332S (antibody)
–	188	anti-CD20 IgG1 376V430R (antibody)
73	–	anti-CD20 IgG1 E382D (antibody)

FcRn pH6.0 (% of wild type)	FcRn6.0 (% of wild type)	Substance
15	–	anti-CD20 IgG1 K248A (antibody)
55	–	anti-CD20 IgG1 D280A (antibody)
191	–	anti-CD20 IgG1 P343H (antibody)
75	–	anti-CD20 IgG1 P247G (antibody)
119	–	anti-CD20 IgG1 E283N (antibody)
361	–	anti-CD20 IgG1 E258D (antibody)
66	–	anti-CD20 IgG1 Y373L (antibody)
122	–	anti-CD20 IgG1 E382P (antibody)
126	–	anti-CD20 IgG1 S440L (antibody)
82	–	anti-CD20 IgG1 Y373T (antibody)
146	–	anti-CD20 IgG1 A339N (antibody)
72	–	anti-CD20 IgG1 G341Q (antibody)
358	–	anti-CD20 IgG1 N434G (antibody)
52	–	anti-CD20 IgG1 G341D (antibody)
183	–	anti-CD20 IgG1 E430S (antibody)
54	–	anti-CD20 IgG1 A327T (antibody)
165	–	anti-CD20 IgG1 T250M (antibody)
5	–	anti-CD20 IgG1 L314W (antibody)
90	–	anti-CD20 IgG1 P238A (antibody)
–	78	anti-CD20 IgG1 247L332E (antibody)
74	–	anti-CD20 IgG1 K439Q (antibody)
135	–	anti-CD20 IgG1 E382M (antibody)
98	–	anti-CD20 IgG1 I377P (antibody)
131	–	anti-CD20 IgG1 E430G (antibody)
135	–	anti-CD20 IgG1 E382H (antibody)
1620	–	anti-CD20 IgG1 N434Y (antibody)

FcRn pH6.0 (% of wild type)	FcRn6.0 (% of wild type)	Substance
308	–	anti-CD20 IgG1 E430I (antibody)
68	–	anti-CD20 IgG1 G341T (antibody)
97	–	anti-CD20 IgG1 P247A (antibody)
–	121	anti-CD20 IgG1 256P332E (antibody)
126	–	anti-CD20 IgG1 P343T (antibody)
6	–	anti-CD20 IgG1 S254E (antibody)
131	–	anti-CD20 IgG1 E430K (antibody)
–	411	anti-CD20 IgG1 258D283R (antibody)
230	–	anti-CD20 IgG1 E380S (antibody)
44	–	anti-CD20 IgG1 E430D (antibody)
215	–	anti-CD20 IgG1 Q311W (antibody)
–	94	anti-CD20 IgG1 330R332E (antibody)
46	–	anti-CD20 IgG1 Q311E (antibody)
110	–	anti-CD20 IgG1 E283D (antibody)
101	–	anti-CD20 IgG1 G385P (antibody)
56	–	anti-CD20 IgG1 P343W (antibody)
50	–	anti-CD20 IgG1 G341E (antibody)
60	–	anti-CD20 IgG1 R292G (antibody)
122	–	anti-CD20 IgG1 D270K (antibody)
54	–	anti-CD20 IgG1 G341L (antibody)
74	–	anti-CD20 IgG1 V379N (antibody)
94	–	anti-CD20 IgG1 K439E (antibody)
146	–	anti-CD20 IgG1 I332K (antibody)
126	–	anti-CD20 IgG1 E382L (antibody)
163	–	anti-CD20 IgG1 A378D (antibody)
127	–	anti-CD20 IgG1 G341P (antibody)

FcRn pH6.0 (% of wild type)	FcRn6.0 (% of wild type)	Substance
86	–	anti-CD20 IgG1 E430P (antibody)
–	88	anti-CD20 IgG1 330R332D (antibody)
52	–	anti-CD20 IgG1 P247E (antibody)
6	–	anti-CD20 IgG1 P247F (antibody)
–	143	anti-CD20 IgG1 343R345D (antibody)
54	–	anti-CD20 IgG1 P247D (antibody)
156	–	anti-CD20 IgG1 A339W (antibody)
–	72	anti-CD20 IgG1 251F332E (antibody)
88	–	anti-CD20 IgG1 S440R (antibody)
57	–	anti-CD20 IgG1 P247L (antibody)
88	–	anti-CD20 IgG1 G236F (antibody)
162	–	anti-CD20 IgG1 K288N (antibody)
130	–	anti-CD20 IgG1 V279R (antibody)
100	–	anti-CD20 IgG1 S440Y (antibody)
–	431	anti-CD20 IgG1 286F307E (antibody)
168	–	anti-CD20 IgG1 E283F (antibody)
188	–	anti-CD20 IgG1 P245R (antibody)
155	–	anti-CD20 IgG1 D376A (antibody)
64	–	anti-CD20 IgG1 Q311F (antibody)
195	–	anti-CD20 IgG1 E430M (antibody)
31	–	anti-CD20 IgG1 T256K (antibody)
68	–	anti-CD20 IgG1 R292L (antibody)
136	–	anti-CD20 IgG1 E283P (antibody)
81	–	anti-CD20 IgG1 D270M (antibody)
25	–	anti-CD20 IgG1 S254I (antibody)
525	–	anti-CD20 IgG1 V262L (antibody)

FcRn pH6.0 (% of wild type)	FcRn6.0 (% of wild type)	Substance
194	–	anti-CD20 IgG1 Y436I (antibody)
102	–	anti-CD20 IgG1 A339Q (antibody)
0	–	anti-CD20 IgG1 P247W (antibody)
0	–	anti-CD20 IgG1 S254W (antibody)
66	–	anti-CD20 IgG1 P238G (antibody)
81	–	anti-CD20 IgG1 D376H (antibody)
–	553	anti-CD20 IgG1 257I311I434H (antibody)
29	–	anti-CD20 IgG1 A431P (antibody)
65	–	anti-CD20 IgG1 R292E (antibody)
68	–	anti-CD20 IgG1 T256Y (antibody)
117	–	anti-CD20 IgG1 E283Q (antibody)
52	–	anti-CD20 IgG1 G341F (antibody)
0	–	anti-CD20 IgG1 S254M (antibody)
55	–	anti-CD20 IgG1 G341S (antibody)
145	–	anti-CD20 IgG1 K317P (antibody)
172	–	anti-CD20 IgG1 Y436L (antibody)
74	–	anti-CD20 IgG1 Y373S (antibody)
85	–	anti-CD20 IgG1 S440W (antibody)
–	50	anti-CD20 IgG1 247L251F330R332E (antibody)
176	–	anti-CD20 IgG1 A431K (antibody)
–	480	anti-CD20 IgG1 307E376V (antibody)
142	–	anti-CD20 IgG1 E283Y (antibody)
74	–	anti-CD20 IgG1 P238Y (antibody)
